To fix the notation:
B1: recombinant CEACAM1 N-terminal domain with His tag (rCEACAM1-N-HIS), wildtype [human] / IgI3 domain of R28 (R28-IgI3), wildtype [Streptococcus pyogenes] (parent complex)
chain 1: AQLTTESMPFNVAEGKEVLLLVHNLPQQLFGYSWYKGERVDGNRQIVGYAIGTQQATPGPANSGRETIYPNASLLIQNVTQNDTGFYTLQVIKSDLVNEEATGQFHVY
chain 2: TAPTLTVTPEQQTVKVDEDITFTVTVEDENEVELGLDDLKAKYENDIIGARVKIKYLTKEPNKKVMEVTIMKATLADKGAITFTAKDKAGNQAEPKTVTINVLPLKDSNEPKLPSTGGS

Here are results for 14 variants from PMC10119177 (2023).

The first assay covers variants of B1. As to the kind of experiment: Dynabead binding assay (Dynabeads coated with R28-IgI3, DB.R28IgI3, incubated with rCC1-N variants); parent: 23; read off a plot.
On to chain 1 L96A, for which the response is approximately 6.

For the variant chain 1 N98A, the response is approximately 90.

In the case of chain 1 Q90A, the response is approximately 10.

With chain 1 I92A, the response is approximately 5.

For chain 1 V97A, the response was approximately 100.

Consider chain 1 Q45A, for which the response was approximately 20.

On to chain 1 F30A, for which the response was approximately 5.5.

The variants in the next assay derive from B1. As to the kind of experiment: Dynabead binding assay (Dynabeads coated with R28-IgI3, DB.R28IgI3, incubated with rCC1-N); parent: 33; read off a plot.
In the case of chain 2 I48A, the response was approximately 5.5.

Turning to chain 2 K59A, the response is approximately 21.

On to chain 2 Y56A, for which the response was approximately 7.

As to chain 2 I54A, the response was approximately 19.

As for chain 2 E44A, the response is approximately 40.

In the case of chain 2 K40A, the response was approximately 7.

Regarding chain 2 I47A, the response is approximately 5.5.
